T1: 24P4C12 protein (human) (human, UniProt Q53GD3 1-710)
T1 construct: whole, on cells; also called SLC44A4; CTL4
T1 sequence (looked up): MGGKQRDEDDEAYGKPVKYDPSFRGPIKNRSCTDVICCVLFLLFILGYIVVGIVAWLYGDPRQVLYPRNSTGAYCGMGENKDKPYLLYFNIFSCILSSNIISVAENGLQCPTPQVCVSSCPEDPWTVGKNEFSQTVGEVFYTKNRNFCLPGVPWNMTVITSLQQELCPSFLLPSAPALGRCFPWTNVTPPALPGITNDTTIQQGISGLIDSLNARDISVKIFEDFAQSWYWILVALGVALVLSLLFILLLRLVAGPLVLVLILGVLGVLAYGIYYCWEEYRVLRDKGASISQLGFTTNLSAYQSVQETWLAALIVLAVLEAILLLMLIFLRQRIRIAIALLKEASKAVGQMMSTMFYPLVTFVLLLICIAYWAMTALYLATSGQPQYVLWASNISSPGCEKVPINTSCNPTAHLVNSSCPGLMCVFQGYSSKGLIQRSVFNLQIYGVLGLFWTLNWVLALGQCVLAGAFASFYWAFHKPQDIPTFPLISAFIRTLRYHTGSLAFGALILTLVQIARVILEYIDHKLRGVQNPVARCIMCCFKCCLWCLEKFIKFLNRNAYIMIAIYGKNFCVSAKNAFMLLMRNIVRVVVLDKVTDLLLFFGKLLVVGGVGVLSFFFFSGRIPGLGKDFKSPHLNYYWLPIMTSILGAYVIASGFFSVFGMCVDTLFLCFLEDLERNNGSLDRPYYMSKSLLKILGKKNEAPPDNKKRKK

B1: Ha5-7be20.1 (antibody, V domains shown)
VH: QVQLQESGPGLVKPSETLSLTCTVSGGSISSYYWSWIRQPPGKGLEWIGYIYYSGSTNYNPSLKSRVTISVDTSKNQFSLKLSSVTAADTAVYYCARGYYYGSGSYGLDVWGQGTTVTVSS
VL: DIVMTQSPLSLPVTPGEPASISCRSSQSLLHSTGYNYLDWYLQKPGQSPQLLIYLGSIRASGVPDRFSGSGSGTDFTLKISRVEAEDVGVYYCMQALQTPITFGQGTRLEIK
B2: Ha5-7be31.1 (antibody, V domains shown)
VH: QVQLQESGPGLVKPSETLSLTCTVSGGSISSYYWSWIRQPPGKGLEWIGYIYYSGSTNYNPSLKSRVTISVDTSKNQFSLKLSSVTAADTAVYYCARGYYYGAGSYGMDVWGQGTTVTVSS
VL: DIVMTQSPLSLPVTPGEPASISCRSSQSLLHSTGFNYLDWYLQKPGQSPQLLIYLGSIRASGVPDRFSGSGSGTDFTLKISRVETEDVGVYYCMQTLQTPITFGQGTRLEIK
notes: copies: 2 + 2
B3: Ha5-3(3,5)37.1 (antibody, V domains shown)
VH: QVQLQESGPGLVKPSETLSLTCTVSGGSISSYYWSWIRQPPGKGLEWIGYIYYSGSTNYNPSLKSRVTISVDTSKNQFSLKLNSVTAADTAVYYCARGYYYGSESPYGMDVWGQGTTVTVSS
VL: DIVMTQSPLSLPVTPGEPASISCRSSQSLLHSNGHNYLDWYLQKPGQSPHLLIYLGSNRDSGVPDRFSGSGSGTDFTLKISRVEAEDVGVYYCMQALQIPCSFGQGTKLEIK
B4: Ha5-1(5)1 (antibody, V domains shown)
VH: QVQLVESGGGVVQPGRSLRLSCGASGFTFSSYGMHWVRQAPGKGLEWVAVMSYDGSKKYYTDSVKGRFTISRDNSKNTLYLQMNSLRVEDTAVYYCARDGGDYVRYYYYGMDVWGQGTTVTVSS
VL: DIQMTQSPSSLSASVGDRVTITCRARQGITYHLAWYQQRPGKVPKLLIYDTSSLQSGVPSRFSGSGSGTDFTLTISSLQPEDVATYYCQRFNSAPLTFGGGTKVEIK
notes: also called HA5-1(5)1.1
B5: Ha5-1(5)2.1 (antibody, V domains shown)
VH: QVQLVESGGGVVQPGRSLRLSCAASGFTFSSYGMHWVRQAPGKGLEWVAVMSYDGSKKFYTDSVKGRFTISRDNSKNTLYLQMNSLRAEDTAVYYCARDGGDYVRYHYYGMDVWGQGTTVTVSS
VL: DIQMTQSPSTLSASIGDRVTITCRASQGISYYLAWYQQKPGKIPKLLIYDTSSLQSGVPSRFSGSRSGTDLSLTISSLQPEDVATYYCQRYDSAPLTFGGGTKVEIK
B6: Ha5-7acd7.1.1 (antibody, V domains shown)
VH: QVQLQESGPGLVKPSETLSLTCTVSGGSVSSGGYYWSWIRQPPGKGLEWIGYIYYSGGTNYNPSLKSRVTISVDTSKNQFSLKLTSVTAADTAVYYCARESGYCTNVACFPDAFDIWGQGTMVTVSS
VL: DVVMTQSPFSLPVTPGEPASISCRSSQSLLHSNGFNFLDWYLQKPGQSPQLLIYLGSIRASGVPDRFSGSGSGTDFTLKISRVEAEDVGVYYCMQALQTPLTFGGGTRVEIK
notes: copies: 2 + 2
B7: Ha5-7acd10.1 (antibody, V domains shown)
VH: QVQLVESGGGVVQPGRSLRLSCAASGFTFSSYGMHWVRQAPGKGLEWVAVIWYDGSNKYYADSVKGRFTISRDNSKNTLYLQMNSLRAEDTAVYYCARDRYSGYDYYYYYGMDVWGQGTTVTVSS
VL: DIQMTQSPSSLSASVGDRVTITCRASQGIYNYLAWFQQKPGKAPKSLIYAASSLHSGVPSKFSGGGSGTDFTLTISSLQPEDFATYYCQQYTIYPFTFGPGTKVDIK
notes: copies: 2 + 2
B8: Ha5-11b1.1 (antibody, V domains shown)
VH: QVQLVESGGGVVQPGRSLRLSCAASGFTFSSHGMHWVRQAPGKGLEWVAVIWYDGSNKYYADSVKGRFTISRDNSKNTLYLQMNSLRAEDTAVYYCARDQYSGYDLYYYYGMDVWGQGTTVTVSS
VL: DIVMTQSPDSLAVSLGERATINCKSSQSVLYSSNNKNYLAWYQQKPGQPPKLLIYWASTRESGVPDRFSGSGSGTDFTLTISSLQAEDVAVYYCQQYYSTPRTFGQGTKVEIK
B9: Ha5-3(1,4)7.1 (antibody, V domains shown)
VH: QVQLVESGGGVVQPGRSLRLSCAASGFTFSSYGMHWVRQAPGKGLEWVAVIWYDGSNKYYADSVKGRFTISRDNSKNTLYLQMNSLRAEDTAVYYCARDRYSGYGYYYYYGMDVWGQGTTVTVSS
VL: DIQMTQSPSSLSASVGDRVTITCRASQDISNYLAWFQQKPGKAPKSLIYAASSLHSGVPSKFSGSGSGTDFTLTISSLQPEDFATYYCQQYTIYPFTFGPGTKVDIK
modifications: Labelled with Alexa Fluor 488 in the FIG. 14 experiment. The site is not stated and the letters do not carry it.
B10: Ha5-7acd3.1 (antibody, V domains shown)
VH: QVQLVESGGGVVQPGRSLRLSCAASGFTFSSYGMHWVRQAPGKGLEWVAVIWYDGSNKYYTDSVKGRFTISRDNSKNTLYLQMNSLRAEDTAVYYCARDRYSGYDYFYYYGMDVWGQGTTVTVSS
VL: DIQMTQSPSSLSASVGDRVTITCRASQGIYNYLAWFQQKPGKAPRSLIYAASSLHSGVPSKFSGSGSGTDFTLTISSLQPEDFATYYCQQYTIYPFTFGPGTKVDIK
B11: Ha5-7acd4.1 (antibody, V domains shown)
VH: QVQLVESGGGVVQPGRSLRLSCAASGFTFSSYGMHWVRQAPGKGLEWVAVIWYDGSNKYYADSVKGRFTISRDNSKNTLYLQMNSLRAEDTAVYYCARDRYSGYDYYYYYGMDVWGQGTTVTVSS
VL: DIQMTQSPSSLSASVGDRVTITCRASQVIYNYLAWFQQKPGKAPKSLIYGASSLHSGVPSKFSGSGSGTEFTLTISSLQPEDFATYYCQQYTIYPFSFGPGTKVDIK
B12: Ha5-7acd16.1 (antibody, V domains shown)
VH: QVQLVESGGGVVQPGRSLRLSCAASGFTFSSHGMHWVRQAPGKGLEWVAVIWYDGSNKYYADSVKGRFTISRDNSKNTLYLQMNSLRAEDTAVYYCARDAYSGYDYYYYYGMDVWGQGTTVTVSS
VL: DIQMTQSPSSLSASVGDRVTITCRASQGIYTYLAWFQQKPGKAPKSLIYGASSLQSGVPSKFSGSGSGTDFTLTITSLQPEDFATYYCQQYTIYPFSFGPGTKVDIK
notes: also called HA5-acd16.1; copies: 2 + 2
B13: Ha5-7acd20.1.1 (antibody, V domains shown)
VH: QVQLVESGGGVVQPGRSLRLSCAASGFTFSSYGMHWVRQAPGKGLEWVAVIWYDGRNKYYVDSVKGRFTISRDNSKNTLYLQMNSLRAEDTAVYYCARDRYSGSDYYYYYGMDVWGQGTTVTVSS
VL: DIQMTQSPSSLSASVGDRVTITCRASQGIYNYLAWFQQKPGKAPKSLIYAASSLQSGVPSKFSGSGSGTVFTLTISSLQPEDFATYYCQQYTVYPFTFGPGTKVDFK
B14: Ha5-7acd2.1 (antibody, V domains shown)
VH: QVQLQESGPGLVKPSETLSLTCTVSGGSISSYYWSWIRQPPGKGLEWIGYIYYSGSTNYNPSLKSRVTISVDTSKNQFSLKLSSVTAADTAVYYCANTYYYGSGYGMDVWGQGTTVTVSS
VL: DIVMTQSPLSLPVTPGEPASISCRSSQSLLHSTGHNYLDWYLQKPGQSPQLLIYLGSIRASGVPDRFSGSGSGTDFTLKISRVEAEDVGVYYCMQALQTITFGQGTRLEIK
B15: Ha5-7acd19.1 (antibody, V domains shown)
VH: QVQLQESGPGLVKPSETLSLTCTVSGGSISSYYWSWIRQPPGKGLEWIGFIYYTGSTNYNPSLKSRVTISVDTSKNQFSLKLSSVTAADTAVYYCANTYYYGSGYGMDVWGQGTTVTVSS
VL: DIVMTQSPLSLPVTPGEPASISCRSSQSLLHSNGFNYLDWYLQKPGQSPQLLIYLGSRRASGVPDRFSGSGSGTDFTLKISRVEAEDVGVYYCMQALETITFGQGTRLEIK
modifications: Labelled with Alexa Fluor 488 dye in the FIG. 14 experiment; the site is not stated and the letters do not carry it.
notes: copies: 2 + 2
B16: Ha5-8ac4.1 (antibody, V domains shown)
VH: QVQLQESGPGLVKPSETLSLTCTVSGGSISRYYWSWIRQPAGKGLERIGRIYTSGSTDYNPSLKSRVTMSVDTSKNQFSLKLRSVTAADTAVYYCARDLYSNGYWYFDLWGRGTLVTVSS
VL: QSVLTQPPSVSGAPGQRVTISCTGSSSNIGAGYDVHWYQQLPGTAPKLLIYGNSNRPSGVPDRFSGSKSGTSASLAITGLQAEDEADYYCQSYDSSLSGVVFGGGTKLTVL
notes: also called Ha5-8acd4.1

This experiment addresses T1, 24P4C12 protein (human). Description: FACS saturation equilibrium binding on LNCaP cells.
Procedure: The affinity to LNCaP cells was determined by FACS using saturation equilibrium binding assay. […] At the end of incubation, the cells were washed with FACS Buffer and incubated with 100 ul of detection antibody (anti-hIgG-PE) for 45 minutes at 4° C., the cells were then washed with FACS Buffer, fixed with 2% Formaldehyde and analyzed using FACScan. FACS data were analyzed using CellQuest Pro software to acquire histogram and Mean Fluoresces Intensity (MFI) values of each point. The MFI values were used to calculate the binding affinity using non-linear regression using Prism4 software (Graphpad Software Inc. San Diego Calif.).
A word on the Kd: it is the equilibrium constant for the complex coming apart. Read a high Kd as lower affinity. The molecule B1 registered a dissociation constant (Kd) of 3.2 nM.

In turn, B2 showed a Kd of 4.15 nM. Next, B3: 0.45 nM; B4: 4.1 nM; B5: 2.75 nM. Regarding B6, the Kd was determined as 1.85 nM.

B7 gave a Kd of 1.26 nM. The Kd values of the last two molecules are within 1.5-fold of each other. B8 had a dissociation constant Kd of 3.4 nM.

B9 had an equilibrium dissociation constant (Kd) of 5.5 nM. Next, B10: 4.4 nM; B11: 0.99 nM. Next, B12: 0.7 nM; B13: 1.1 nM; B14: 1.95 nM. Next, B15: 0.19 nM. Turning to B16, the affinity, expressed as Kd, was 0.07 nM.

The values are drawn from patent US20090175796A1 (AGENSYS, published 2009).
